According to the supplement of paper PMC10567573:

B1: FAM46C (parent)
chain: VRSRLEEAGIKVHDVRLNGSAAGH
B2: TRAF3IP2 (parent)
chain: FMEKRNQWLVSQLSAASPDTGHDS

Variants of: B1
Experiment: protein stability index of a GFP-peptide fusion (GPS, HEK-293T) (PSI 1-6); higher = more stable
Settings: c terminus: a fixed tail appended
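Further: lentivirally expressed fusions sorted by FACS into six bins by GFP to DsRed ratio, PSI derived from sequencing read proportions per bin multiplied by bin number.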

Protein stability index of substitutions, site by site:
R16: V 2.63; Q 2.68
G19: S 2.09; I 3.83; E 3.77; L 2.16; Q 2.74
E7: C 1.47; S 2.5; Y 2.8; R 3.32; P 3.78
V1: T 4.25; L 1.33
D14: Q 2.56; H 3.04; Y 2.74; C 2.33
G9: K 2.75; C 3.03; L 2.26; Q 3.88; T 2.97; W 2.81; I 1.44
A8: I 1.66; F 1.85; K 3.38; T 3.2; N 3.17; Y 1.13
L5: E 4.38; A 4.34; Q 5.12; S 4.34; W 3.49
K11: H 1.99; L 3.83; I 1.63; C 2.73; S 3.76; G 3.13
S20: L 2; G 1.94; C 2.45
V15: N 3.62; K 3.44; C 2.42; Y 2.61; R 3.75; M 3.41
R2: H 2.4; Y 2.95; W 2.28; M 2.33; V 2.13
N18: M 3.59; Y 1.62; G 2.02; K 3.56
A22: R 2.17; F 1.25; V 3.25
I10: G 4.5; F 2.12; T 3.78
H24: W 3.51; N 3.78; M 2.15
L17: S 4.33; D 4; R 3.52; G 4.55; P 2.6; C 2.61
A21: I 2.44; E 2.53; D 3.13
G23: M 1.62; V 1.82; A 2.92; W 2.18; H 2.85
S3: V 1.69; Q 1.79; W 2.05; L 1.28; F 1.69; T 1.68
V12: A 3.93; W 2.77; G 4.04
E6: I 2.54; S 2.7; W 1.64; H 2.9
R4: H 3.26; S 3; Q 3.52
H13: D 1.02; K 2.02; Y 1.25; S 1.19

Variants of: B2
Experiment: as above
Settings: c terminus: a fixed tail appended

Protein stability index: each site, then its substitutions
T20: K 2.47; Y 2.64; I 1.74; E 1.75; M 3.13; P 1.99; F 1.97; Q 2.51; N 2.1
S24: T 2.41; D 2.45; H 2.26; F 2.15; W 2; Y 2.04; K 1.81; R 2.48
A16: S 2.39; M 2.06; F 2.9; H 2.47; D 2.29; P 2.14; Q 2.6; Y 1.87; V 2.26; K 2.09; G 3.03; N 2.9; I 2.26; L 1.38; T 1.96
Q12: N 2.81; Y 1.98; S 1.77; T 1.7; H 3.89; V 1.53; D 3.21; R 2.33; L 1.65; C 1.85
R5: Q 2.67; V 1.97; Y 1.89; E 3.5; T 2.16; K 2.38; G 1.71; L 1.79; F 1.83; H 2.62; S 2.28; C 2.25
M2: I 1.25; P 1.42; S 2.2; Q 3.27; N 3.29; D 3.06; Y 2.97; H 1.58
H22: D 2.87; C 2.8; S 2.33; W 2.05; A 3.18; F 2.4; E 3.38; Y 1.94; G 2.01; K 2.39; Q 2.75
S14: V 1.65; Y 1.63; H 2.48; P 2.53; W 1.89; I 2.08; F 1.93; T 2.77; K 2.41; R 2.39
S17: R 2.46; G 2.47; I 2.19; K 2.41; F 1.88; E 2.88; D 2.94
E3: M 2.28; P 1.93; K 2.91; D 2.24; N 1.97; F 2.94; T 3.83; S 1.77; R 1.05; L 2.75; Q 2.27
S11: G 3.32; A 1.94; W 3.25; I 2.06; Q 2.89; L 1.46; K 2.7; H 2.63; P 2.9
F1: S 4.37; D 5.05; N 4.36; V 4.55; G 4.26; H 4.84; R 4.48; C 3.98; K 3.71; Y 2.84
W8: V 4.79; F 3.95; G 5.09; K 4.57; C 4.71; Y 4.21; R 4.68; L 4.45; N 5.08; E 4.74; H 4.43; S 4.93; I 4.25
D23: I 1.65; C 1.73; E 2.49; Q 2.44; P 2.21; S 2.69; H 2.47
A15: N 2.21; T 2.7; Q 2.34; G 2.71; D 2.47; K 3.53
N6: W 1.29; D 2.73; L 1.51; M 2.06; K 2.42; Q 1.91; I 1.42; S 2.2; P 3.03; C 1.77
D19: A 3.69; T 3.02; R 2.9; L 1.92; E 1.91; I 2.52; P 2.33; H 2.2; G 1.7
L9: V 1.71; C 2.41; K 2.7; P 3.83; F 2.73; D 4.31; N 3.44; Q 3.03; H 3.82
V10: Y 2.5; M 2.74; R 3.28; P 2.46; D 4.18; K 3.41; S 3.5; C 1.99; F 1.29
P18: L 1.93; A 2.35; V 2.54; K 2.42; G 2.38; C 2.22; W 1.67; S 1.49; Y 2.7
Q7: N 2.65; H 2.26; V 1.81; C 1.87; E 2.72; Y 2.88; M 1.8; S 1.64; T 1.79
K4: W 1.3; G 1.89; P 2.36; N 2.38; I 2.6; Q 2.57; M 2.51; F 2.35; Y 2.17; E 3.69
L13: E 3.2; F 2.48; V 2.61; R 3.01; C 1.91; Q 2.5; T 2.67; Y 2.35; K 2.84; D 3.45
G21: T 2.44; S 2.18; P 2.75; V 1.67; A 2.72; Q 2.52; M 1.77; K 2.44; W 1.63; R 2.62
